Source: PMC5498567

System: T1, BsmT (Stenotrophomonas maltophilia ATCC 13637 (CGMCC 1.1788 in supplement)), ORF:ed0b4815
T1 sequence: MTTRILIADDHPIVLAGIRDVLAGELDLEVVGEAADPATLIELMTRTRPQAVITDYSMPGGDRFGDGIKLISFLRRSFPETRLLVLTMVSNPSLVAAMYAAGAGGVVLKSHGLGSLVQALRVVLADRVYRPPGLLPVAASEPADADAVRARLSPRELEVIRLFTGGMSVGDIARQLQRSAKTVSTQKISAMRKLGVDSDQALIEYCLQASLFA
Test: EMSA
Conditions: EMSA: 1 fmol 32P-labelled dsDNA with BsmT in reaction buffer at 28 °C; buffer composition, salt and pH not given (protein storage buffer 50 mM Tris-HCl, 0.5 mM …)

GTGCCCGGCCAATGTCGGTACAGGAAACCCCCGCTTCGGCGGGGGTTCCTTTTTTTGCCACCTGAACGGTGCCCGCGTGCAGGCTCCGGGCCGGTCGGCCAGCCGGGGATTTTAGGAAACAGCTGATTCCGCGCCGTCCGCGCCGCTTCCTAGCATCGTTGC (double strand)
binding: binds
